# Reference: patent US20050182242A1, “Global analysis of protein activities using proteome chips” (priority 2001, published 2005)
# B1: SPS1: yeast GST-HisX6 fusion protein on proteome chip (protein, UniProt P08458 1-490, looked up)
# Sporulation-specific protein 1: MESKEISIRSRTPPSKLYSIQSCIGRGNFGDVYKAVDRVTQEIVAIKVVNLEHSDEDIELLAQEIFFLAELKSPLITNYIATMLEDVSMWIVMEYCGGGSCSDLLKRSYVNGLPEEKVSFIIHEVTLGLKYLHEQRKIHRDIKAANILLNEEGMVKLGDFGVSGHIRSTLKRDTFVGTPYWMAPEVVCCEVDGYNEKADIWSLGITTYELLKGLPPLSKYDPMKVMTNLPKRKPPKLQGPFSDAAKDFVAGCLVKTPADRPSAYNLLSFEFVKNITITNLKSDVDLIKQKKVQERYTKVPKYPLQNRLYKNSNTVRGKEFWNFESTRLSTTQISKEELSPITQDSPTSSLNMESPYLLHGQTVTPITNPSSSSFRKCTQPVFELDSGMDIDSGCPNAQAETEIVPLSNHNKKHKKNDIQALKIEKFDYLKNIVSHILNRMYDRARDDETRKYVNEMLKQFIKTEANVPGFNEVFIEEISLRIEAIKKGFV
# modifications: GST-His6 fusion tag
# notes: yeast GST-HisX6 fusion protein on proteome chip
# Tests used:
# [1] = tested on: phosphatidylcholine (PC) liposomes; assay: Yeast proteome chip probed with PC liposomes; conditions: liposome binding signal on yeast proteome chip, Cy3-streptavidin detection
# How it was run: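 Yeast proteome chips incubated 1 h at RT with sonicated liposomes of PC containing 1% (w/w) biotin-DHPE, plus 5% (w/w) of the indicated phosphoinositide where applicable. After PBS washes, bound liposomes detected with Cy3- or Cy5-streptavidin (>30 min, RT, dark) and fluorescence scanned.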
# PI(3,4,5)P3 liposomes = assay: Yeast proteome chip probed with PI(3,4,5)P3 liposomes; conditions: liposome binding signal on yeast proteome chip, Cy3-streptavidin detection
# PI(3,4)P2 liposomes = assay: Yeast proteome chip probed with PI(3,4)P2 liposomes; conditions: liposome binding signal on yeast proteome chip, Cy3-streptavidin detection
# PI(3)P liposomes = assay: Yeast proteome chip probed with PI(3)P liposomes; conditions: liposome binding signal on yeast proteome chip, Cy3-streptavidin detection
# PI(4,5)P2 liposomes = assay: Yeast proteome chip probed with PI(4,5)P2 liposomes; conditions: liposome binding signal on yeast proteome chip, Cy3-streptavidin detection
# PI(4)P liposomes = assay: Yeast proteome chip probed with PI(4)P liposomes; conditions: liposome binding signal on yeast proteome chip, Cy3-streptavidin detection
# six different liposomes = assay: Reverse membrane assay: proteins spotted on nitrocellulose probed with six liposomes; format: binding; conditions: HRP-conjugated streptavidin
# Description: B. A reverse assay was carried out to test for protein-lipid interactions. The proteins were prepared and spotted onto nitrocellulose filters in a dilution series and probed with the six different liposomes. As a control, the six liposomes were also added to the BSA-blocked membrane. After extensive washing, the bound liposomes were detected using an HRP-conjugated streptavidin and an ECL kit.
# C. Linear correlation between the binding signals and the amounts of Rim15p in a membrane assay. When liposome-binding signals of Rim15p from the membrane assay (FIG. 4B) were plotted against the concentration gradient of the spotted Rim15p, the binding signals of PI(4)P, PI(3,4)P2, PI(3)P, and PI(4,5)P2 correlated linearly with the amounts of Rim15p.
# Therefore, six proteins, i.e., Rim15p, Eno2p, Hxk1p, Sps1p, Yg1059wp, and Gcn2p, were further tested for phosphoinositol binding using two types of standard assays (Williamson, 2000, Nat. Struct Biol. 7(10):834-7). For Rim15p, Eno2p, and Hxk1p, PI(4,5)P2 liposomes were first adhered to a nitrocellulose membrane, which was then blocked by BSA; different amounts of the GST fusion proteins and a GST control were used to probe the membrane, and bound proteins were detected using anti-GST antibodies. […] The bound liposomes were detected using a horseradish peroxidase (“HRP”)-conjugated streptavidin.
molecule,measurement,setting,value
B1,PC,[1],557.02
same,"PI(3, 4, 5)P3","PI(3,4,5)P3 liposomes",389.70
same,"PI(3, 4)P2","PI(3,4)P2 liposomes",1147.50
same,PI(3)P,PI(3)P liposomes,88.50
same,"PI(4, 5)P2","PI(4,5)P2 liposomes",358.84
same,PI(4)P,PI(4)P liposomes,246.92
same,liposome binding in reverse membrane assay,six different liposomes,bound all five phosphoinositol-containing liposomes nearly equally
